Results: patent US20090062512A1, “Comparative ligand mapping from MHC class I positive cells” (priority 2000, published 2009)

Experiments:
Type in all cases: cell-based
[1] = biological target: sHLA-A*0201 from MCF-7, MDA-MB-231, BT-20 and MCF10A (Homo sapiens, UniProt P04439, D140Y/D185E/D98H/E176V/E277Q/G131W/G231S/I119V/I121R/I166T/I218V/L300P/L318F/N151K/N90K/P208A/P217A/Q86G/Q94H/R138H/R169H/T345S); test: MS comparative analysis of sHLA-A*0201 peptides, breast cancer cell lines vs nontumorigenic MCF10A; conditions: for FOLD INCREASE BT-20 over MCF10A / FOLD INCREASE MCF-7 over MCF10A / FOLD INCREASE MDA-MB-231 over MCF10A: peptide epitope presented on sHLA-A*0201; for FOLD INCREASE BT-20 over MCF10A: BT-20 vs nontumorigenic MCF10A; for FOLD INCREASE MCF-7 over MCF10A: MCF-7 vs nontumorigenic MCF10A; for FOLD INCREASE MDA-MB-231 over MCF10A: MDA-MB-231 vs nontumorigenic MCF10A; for presentation by HLA A*0201 of tumorigenic vs nontumorigenic cell lines: MCF-7, MDA-MB-231, BT-20 vs MCF10A
[2] = biological target: A*0201 class I MHC molecules in cells infected with the West Nile virus (Homo sapiens, UniProt P04439, D140Y/D185E/D98H/E176V/E277Q/G131W/G231S/I119V/I121R/I166T/I218V/L300P/L318F/N151K/N90K/P208A/P217A/Q86G/Q94H/R138H/R169H/T345S)
[3] = biological target: A*0201 class I MHC molecules in cells infected with the PR8 strain of influenza A virus (Homo sapiens, UniProt P04439, D140Y/D185E/D98H/E176V/E277Q/G131W/G231S/I119V/I121R/I166T/I218V/L300P/L318F/N151K/N90K/P208A/P217A/Q86G/Q94H/R138H/R169H/T345S)
[4] = biological target: B*0702 class I MHC molecules in cells infected with the PR8 strain of influenza A virus (Homo sapiens, UniProt P01889)

AQYEHDLEVA
FOLD INCREASE BT-20 over MCF10A [1]: 8 | FOLD INCREASE MCF-7 over MCF10A [1]: 34 | FOLD INCREASE MDA-MB-231 over MCF10A [1]: 2

ATWAENIQV
Fold Increase [2]: Unique

FLKEPALNEA
Fold Increase [2]: Unique

GLIEKNIEL (listed as Homo sapiens)
presentation by HLA A*0201 of tumorigenic vs nontumorigenic cell lines [1]: shared by all 4 cell lines | Fold Increase [3]: 1.58

KILDLETQL
FOLD INCREASE BT-20 over MCF10A [1]: 7 | FOLD INCREASE MCF-7 over MCF10A [1]: 9 | FOLD INCREASE MDA-MB-231 over MCF10A [1]: 1.4

KIVVVTAGV
Fold Increase [2]: Unique

LDQSVTHL
Fold Increase [2]: Unique

LLDVPTAA
Fold Increase [2]: Unique

LLQEVEHQL (listed as Homo sapiens)
presentation by HLA A*0201 of tumorigenic vs nontumorigenic cell lines [1]: found only in the MCF-7 peptide pool

NLMHISYE
Fold Increase [2]: Unique

RLDDDGNFQL
Fold Increase [2]: Unique

RPAGKGSITI
Fold Increase [4]: 1.8

RPGLKNNL
Fold Increase [4]: 1.5

RPKANSA
Fold Increase [4]: 1.8

RPPPIGAEV
Fold Increase [4]: 2.9

RPQGGQDIL
Fold Increase [4]: 2.24

RPSGKGIVEF
Fold Increase [4]: 13.7

RPTGGVGAV
Fold Increase [4]: 2.7

RVEPLRNEL
Fold Increase [4]: 1.95

SLFGGSVKL
FOLD INCREASE BT-20 over MCF10A [1]: 1.3 | FOLD INCREASE MCF-7 over MCF10A [1]: 5 | FOLD INCREASE MDA-MB-231 over MCF10A [1]: 2.6

SLFGQRIEN
Fold Increase [2]: Unique

SLFPGKLEV
FOLD INCREASE BT-20 over MCF10A [1]: 2 | FOLD INCREASE MCF-7 over MCF10A [1]: 5 | FOLD INCREASE MDA-MB-231 over MCF10A [1]: 2.2

SLLEKSLGL (listed as Homo sapiens)
FOLD INCREASE BT-20 over MCF10A [1]: None | FOLD INCREASE MCF-7 over MCF10A [1]: 7.9 | FOLD INCREASE MDA-MB-231 over MCF10A [1]: 7.4 | Fold Increase [3]: 1.64

SPAKIHVF
Fold Increase [4]: 2.8

SPGIPNPGAPL
Fold Increase [4]: 1.84

SPGPPTRKL
Fold Increase [4]: 1.9

SPKIRRL
Fold Increase [4]: 1.63

SPPSKPTVL
Fold Increase [4]: 1.9

SPQEDKEVI
Fold Increase [4]: 4.19

SPRSGLIRV
Fold Increase [4]: 1.53

SPVPSRPL
Fold Increase [4]: 2.91

SVGGVFTSV
Fold Increase [2]: Unique

TLYEAVREV
FOLD INCREASE BT-20 over MCF10A [1]: 7.9 | FOLD INCREASE MCF-7 over MCF10A [1]: None | FOLD INCREASE MDA-MB-231 over MCF10A [1]: 2.3

TPEQIFQN
Fold Increase [4]: 1.51

TQFVRFDSD
Fold Increase [4]: 1.64

VFLKPWI
Fold Increase [4]: 1.62

VLDELKVA
Fold Increase [2]: Unique

YPFKPPKVAF
Fold Increase [4]: 3.27

YPKRPLLGL
Fold Increase [4]: 1.61

YQFTGIKKY
Fold Increase [4]: 2.3

YTMDGEYRL
Fold Increase [2]: Unique
